What is called Kd is the concentration at which binding is half-saturated. One may read the IC50 as the concentration at which inhibition is half-maximal.

For the first assay, the target named is HLA-A*01:01. As to the kind of experiment: IEDB peptide-MHC binding, purified MHC/competitive/radioactivity; filed as Kd, often an IC50 or EC50 that approximates it; ≥ and ≤ were set here for values at or beyond the usual limits of such assays. The note with it: source organism: Clostridium botulinum.
Regarding KSKSIFFEY, the Kd amounted to 7060 nM.
On to GMQNIYIKY, for which the Kd is 2470 nM.
With DMIVDAIPY, the Kd is not below 50000 nM.
As to LHEYKQGDY, the Kd was not below 50000 nM.
Take ITYFKKIYY: the Kd worked out at 2330 nM.
For the sequence RNEFSNVEY, the Kd was not below 50000 nM.

The assay is the same for the next values; noted with them: source organism: Clostridium perfringens.
Turning to LGDGVKDHY, the Kd was 11600 nM.

The assay is the same for the next values; noted with them: source organism: Hepacivirus hominis.
Turning to FTIFKIRMY, the Kd amounted to 3500 nM.

The assay is the same for the next values; noted with them: source organism: Hepatitis B virus adw/Okinawa/PODW282.
PLDKGIKPY: the Kd was 2210 nM.

The same assay, now with this note: source organism: Hepatitis C virus (isolate Japanese).
With PGDPPQPEY, the Kd was not below 50000 nM.

The same assay, now with this note: source organism: Human immunodeficiency virus type 1 (NEW YORK-5 ISOLATE).
With ETKLGKAGY, the Kd is not below 42000 nM.
Consider ETPGIRYQY, for which the Kd was 2150 nM.

The same assay, now with this note: source organism: Human papillomavirus 16.
With FEDPTRRPY, the Kd was not below 50000 nM.
Turning to VCDKCLKFY, the Kd is not below 50000 nM.

The same assay, now with this note: source organism: Influenza A virus (A/Texas/1/1977(H3N2)).
Take AFDERRNKY: the Kd is not below 50000 nM.

Still in this assay, the particulars now being: source organism: Mycobacterium tuberculosis.
Turning to SSLGLPVSY, the Kd turned out to be 9660 nM.
With VTPEQRPLY, the Kd is 2710 nM.

The assay is the same for the next values; noted with them: source organism: Neisseria gonorrhoeae.
Turning to YDEDDYSYY, the Kd is not below 50000 nM.
With DPEMADVTY, the Kd was not below 50000 nM.
On to RSYNLKLSY, for which the Kd was found to be 6220 nM.
Same read-out and setting: to QNDYDEDDY belongs 14000 nM; to QRESTAMAY, not below 50000 nM.
On the same count and under the same terms, to RPDLSLRSY belongs not below 50000 nM; to EKEVVPDFY, not below 50000 nM; to VREFPEDQY, not below 50000 nM.
As for LSQDALTNY, the dissociation constant (Kd) was 2060 nM.
KSWQEWNIY: the Kd came out at 17900 nM.
On the same count and under the same terms, the result for GTYDYWAGY reads 1180 nM.
Take GKDLYYKNY: the Kd is not below 50000 nM.
With TTRPGLAGY, the Kd is not below 35000 nM.
In the case of KTQNGKKQY, the Kd is not below 50000 nM.
Turning to FDEKNQDKY, the Kd is not below 50000 nM.
For the sequence IRDMTEKQY, the dissociation constant Kd is not below 50000 nM.

The next assay concerns the target HLA-A*01:01. As to the kind of experiment: IEDB peptide-MHC binding, purified MHC/competitive/radioactivity; ≥ and ≤ were set here for values at or beyond the usual limits of such assays. The note with it: source organism: Clostridium botulinum.
On to TSPYELSLY, for which the IC50 stood at 255 nM.
Same read-out and setting: to IIEDQYNRY belongs 179 nM; to FVEDPNGKY, 677 nM.
As to TSIPFLHEY, the IC50 was found to be 618 nM.
Turning to FLDQWWTEY, the IC50 was determined as 1.1 nM.
With LTYKYNQFY, the IC50 was 12 nM.
The same measure, in the same setting: to ISDESYRVY belongs 183 nM; to CSNDKSLVY, 115 nM.

The same assay, now with this note: source organism: Clostridium perfringens.
For the sequence STTAGPNEY, the IC50 came to 785 nM.

Still in this assay, the particulars now being: source organism: Hepacivirus hominis.
For the sequence VQDCNCSIY, the IC50 turned out to be 78 nM.
For LTPRCMVDY, the IC50 was found to be 538 nM.

Staying with this assay, now noted: source organism: Hepatitis B virus adw/Okinawa/PODW282.
Regarding PTTGRTSLY, the IC50 was 54 nM.
As for LTKQYLNLY, the IC50 was 84 nM.

The assay is the same for the next values; noted with them: source organism: Homo sapiens.
Consider YTAVVPLVY, for which the IC50 came to 1.5 nM.
As for ETLEEITGY, the IC50 turned out to be 984 nM.
TQDLVQEKY: the IC50 amounted to 20 nM.
Turning to GTQLFEDNY, the concentration for half-maximal inhibition (IC50) was found to be 237 nM.

The assay is the same for the next values; noted with them: source organism: Mycobacterium tuberculosis.
As to RSARASSRY, the IC50 was 622 nM.
Same read-out and setting: to VAEGDTVIY belongs 840 nM.
Same read-out and setting: the result for HTEFEGQVY reads 6.8 nM.

The assay is the same for the next values; noted with them: source organism: Neisseria gonorrhoeae.
As to LTAGLDFAY, the IC50 stood at 26 nM.
The same measure, in the same setting: the result for LSGNGHFHY reads 125 nM; that for GTATYLPPY, 120 nM.
On the same count and under the same terms, the result for NTFVQANLY reads 492 nM; that for LTEIDIRDY, 65 nM; that for KAEVHTFYY, 233 nM.
With HSAEALQKY, the IC50 came to 398 nM.
On the same count and under the same terms, the result for ASADKPYSY reads 280 nM.

The values are drawn from the Immune Epitope Database (IEDB).
